Consider 17 molecules from patent US20110158985A1 (published 2011).

Where “and” joins values, the source holds several entries; their conditions need not be identical. Identical values can stand only once. Like-named read-outs stand apart in the source and are kept apart here.

Assay [1] concerns the target T1, recombinant C-terminally truncated RSV (A2 strain) F protein (RSV (A2 strain), UniProt P03420 26-524).
T1 construct: extracellular domain; also called truncated F protein; extracellular domain of the F protein from RSV A2
Put plainly: SPR (BIAcore), Fab over immobilised F.

The next assay concerns the target RSV F protein (purified) (respiratory syncytial virus). Put plainly: SPR (BIAcore), F protein immobilised.
Assay [2] concerns the target T2, F protein of RSV (Long strain) (RSV (Long strain), UniProt P12568 26-574). Kind of assay: cell-based or functional assay.
Assay [3] deals with T2, F protein of RSV (Long strain). Kind of assay: cell-based or functional assay. The source holds these as a separate data set.
The target of assay [4] is T1, recombinant C-terminally truncated RSV …. Kind of assay: SPR (BIAcore), Fab over immobilised F. The source holds these as a separate data set.
Assay [5] addresses T2, F protein of RSV (Long strain). Put plainly: cell-based or functional assay. This is another data set of the same source.

B1: A3e2 Fab (Fab, V domains shown)
VH: QVTLRESGPALVKPTQTLTLTCTFSGFSLSTAGMSVGWIRQPPGKALEWLADIWWGDKGHYNPSLKDRLTISKDTSKNQVVLKVTNMDPADTATYYCARDMIFNWYFDVWGQGTTVTVSS
VL: DIQMTQSPSTLSASVGDRVTITCSASSSVGYMHWYQQKPGKAPKLLIYDTFYLHSGVPSRFSGSGSGTEFTLTISSLQPDDFATYYCFQGSGYPFTFGGGTKVEIK
On to B1, for which, in assay [1], the Kd turned out to be 157 pM, the koff is 9.4e-05 s⁻¹ and the kon worked out at 599000 M⁻¹ s⁻¹.

B2: H3-3F4 Fab (Fab, V domains shown)
VH: QVTLRESGPALVKPTQTLTLTCTFSGFSLSTAGMSVGWIRQPPGKALEWLADIWWDDKKDYNPSLKSRLTISKDTSKNQVVLKVTNMDPADTATYYCARDMIFNWYFDVWGQGTTVTVSS
VL: DIQMTQSPSTLSASVGDRVTITCSASSSVGYMHWYQQKPGKAPKLLIYDTFKLASGVPSRFSGSGSGTEFTLTISSLQPDDFATYYCFQGSGYPFTFGGGTKVEIK
B2: the koff with RSV F protein (purified) is 0.000445 s⁻¹ and 0.000402 s⁻¹.

B3: A17d4(1) Fab (Fab, V domains shown)
VH: QVTLRESGPALVKPTQTLTLTCTFSGFSLSTAGMSVGWIRQPPGKALEWLADIWWDGKKSYNPSLKDRLTISKDTSKNQVVLKVTNMDPADTATYYCARDMIFNFYFDVWGQGTTVTVSS
VL: DIQMTQSPSTLSASVGDRVTITCLPSSRVGYMHWYQQKPGKAPKLLIYDTMYQSSGVPSRFSGSGSGTEFTLTISSLQPDDFATYYCFQGSGYPFTFGGGTKVEIK
B3: the “Microneutralization IC50, Fab” value in assay [2] was 0.0179 µg/ml and 0.36 nM. In assay [3], the “Mean IC50 (Control)” value is 0.0171 µg/mL and the “Mean IC50 (Curve)” value is 0.0179 µg/mL. For the same molecule, in assay [1], the Kd is 111 pM, the koff came to 5.9e-05 s⁻¹ and the kon is 531000 M⁻¹ s⁻¹.

B4: M3H9 Fab (Fab, V domains shown)
VH: QVTLRESGPALVKPTQTLTLTCTFSGFSLSTAGMSVGWIRQPPGKALEWLADIWWDDKKDYNPSLKSRLTISKDTSKNQVVLKVTNMDPADTATYYCARDMIFNWYFDVWGQGTTVTVSS
VL: DIQMTQSPSTLSASVGDRVTITCSASSSVGYMHWYQQKPGKAPKLLIYDTYKQTSGVPSRFSGSGSGTEFTLTISSLQPDDFATYYCFQGSGYPFTFGGGTKVEIK
On to B4, for which, in the assay with RSV F protein (purified), the koff is 0.000338 s⁻¹ and the kon is 605000 M⁻¹ s⁻¹.

B5: DG (aka D95/G93) Fab (Fab, V domains shown)
VH: QVTLRESGPALVKPTQTLTLTCTFSGFSLSTAGMSVGWIRQPPGKALEWLADIWWDDKKDYNPSLKSRLTISKDTSKNQVVLKVTNMDPADTATYYCARDMITNFYFDVWGQGTTVTVSS
VL: DIQMTQSPSTLSASVGDRVTITCSASSSVGYMHWYQQKPGKAPKLLIYDTFKLASGVPSRFSGSGSGTEFTLTISSLQPDDFATYYCFQGSGYPFTFGGGTKVEIK
On to B5, for which the koff with RSV F protein (purified) is 0.000167 s⁻¹ and 0.000444 s⁻¹.

B6: Y10H6 Fab (Fab, V domains shown)
VH: QVTLRESGPALVKPTQTLTLTCTFSGFSLSTAGMSVGWIRQPPGKALEWLADIWWDDKKDYNPSLKSRLTISKDTSKNQVVLKVTNMDPADTATYYCARDMIFNWYFDVWGQGTTVTVSS
VL: DIQMTQSPSTLSASVGDRVTITCSASSSVGYMHWYQQKPGKAPKLLIYDTRYLSSGVPSRFSGSGSGTEFTLTISSLQPDDFATYYCFQGSGYPFTFGGGTKVEIK
In the assay with RSV F protein (purified), B6 had a koff of 0.000462 s⁻¹ and a kon of 757000 M⁻¹ s⁻¹.

B7: 6H8 Fab (Fab, V domains shown)
VH: QVTLRESGPALVKPTQTLTLTCTFSGFSLSTAGMSVGWIRQPPGKALEWLADIWWDDKKDYNPSLKSRLTISKDTSKNQVVLKVTNMDPADTATYYCARDMITNFYFDVWGQGTTVTVSS
VL: DIQMTQSPSTLSASVGDRVTITCSASSSVGYMHWYQQKPGKAPKLLIYDTFKLTSGVPSRFSGSGSGTEFTLTISSLQPDDFATYYCFQGSGYPFTFGGGTKVEIK
With B7, in the assay with RSV F protein (purified), the koff is 0.000178 s⁻¹ and 0.000473 s⁻¹; the association rate constant (kon) was 314000 M⁻¹ s⁻¹ and 444000 M⁻¹ s⁻¹.

B8: L1-7E5 Fab (Fab, V domains shown)
VH: QVTLRESGPALVKPTQTLTLTCTFSGFSLSTAGMSVGWIRQPPGKALEWLADIWWDDKKDYNPSLKSRLTISKDTSKNQVVLKVTNMDPADTATYYCARDMITNFYFDVWGQGTTVTVSS
VL: DIQMTQSPSTLSASVGDRVTITCSASSRVGYMHWYQQKPGKAPKLLIYDTFKLASGVPSRFSGSGSGTEFTLTISSLQPDDFATYYCFQGSGYPFTFGGGTKVEIK
Turning to B8, the koff in the assay with RSV F protein (purified) is 0.000192 s⁻¹ and 0.000331 s⁻¹ and 0.000229 s⁻¹.

B9: P12f4 Fab (Fab, V domains shown)
VH: QVTLRESGPALVKPTQTLTLTCTFSGFSLSTPGMSVGWIRQPPGKALEWLADIWWDGKKHYNPSLKDRLTISKDTSKNQVVLKVTNMDPADTATYYCARDMIFNFYFDVWGQGTTVTVSS
VL: DIQMTQSPSTLSASVGDRVTITCSLSSRVGYMHWYQQKPGKAPKLLIYDTRGLPSGVPSRFSGSGSGTEFTLTISSLQPDDFATYYCFQGSGYPFTFGGGTKVEIK
B9: in the assay with RSV F protein (purified), the koff amounted to 0.000299 s⁻¹ and the kon is 527000 M⁻¹ s⁻¹.

B10: palivizumab Fab (papain cleavage of palivizumab IgG) (Fab, V domains shown)
VH: QVTLRESGPALVKPTQTLTLTCTFSGFSLSTSGMSVGWIRQPPGKALEWLADIWWDDKKDYNPSLKSRLTISKDTSKNQVVLKVTNMDPADTATYYCARSMITNWYFDVWGAGTTVTVSS
VL: DIQMTQSPSTLSASVGDRVTITCKCQLSVGYMHWYQQKPGKAPKLLIYDTSKLASGVPSRFSGSGSGTEFTLTISSLQPDDFATYYCFQGSGYPFTFGGGTKLEIK
notes: also called Palivizumab^a
As for B10, the Kd in assay [4] was found to be 6070 pM.

B11: A17h4 Fab (Fab, V domains shown)
VH: QVTLRESGPALVKPTQTLTLTCTFSGFSLSTAGMSVGWIRQPPGKALEWLADIWWDGKKHYNPSLKDRLTISKDTSKNQVVLKVTNMDPADTATYYCARDMIFNWYFDVWGQGTTVTVSS
VL: DIQMTQSPSTLSASVGDRVTITCSPSSSVGYMHWYQQKPGKAPKLLIYDTYYLASGVPSRFSGSGSGTEFTLTISSLQPDDFATYYCFQGSGYPFTFGGGTKVEIK
With B11, in assay [1], the Kd was found to be 202 pM, the koff amounted to 0.000105 s⁻¹ and the kon turned out to be 519000 M⁻¹ s⁻¹.

B12: G93W Fab (Fab, name in Kabat numbering, V domains shown)
VH: QVTLRESGPALVKPTQTLTLTCTFSGFSLSTSGMSVGWIRQPPGKALEWLADIWWDDKKDYNPSLKSRLTISKDTSKNQVVLKVTNMDPADTATYYCARSMITNWYFDVWGQGTTVTVSS
VL: DIQMTQSPSTLSASVGDRVTITCSASSSVGYMHWYQQKPGKAPKLLIYDTSKLASGVPSRFSGSGSGTEFTLTISSLQPDDFATYYCFQGSWYPFTFGGGTKVEIK
Turning to B12, in assay [4], the Kd came out at 930 pM, the koff amounted to 0.00014 s⁻¹ and the on-rate constant (kon) was determined as 150000 M⁻¹ s⁻¹. Also, the “Microneutralization IC50, Fab” value in assay [5] is 6.57 µg/ml and 131 nM.

B13: A16b4 Fab (Fab, V domains shown)
VH: QVTLRESGPALVKPTQTLTLTCTFSGFSLSTAGMSVGWIRQPPGKALEWLADIWWDDKKHYNPSLKDRLTISKDTSKNQVVLKVTNMDPADTATYYCARDMIFNWYFDVWGQGTTVTVSS
VL: DIQMTQSPSTLSASVGDRVTITCLLSSRVGYMHWYQQKPGKAPKLLIYDTMYQASGVPSRFSGSGSGTEFTLTISSLQPDDFATYYCFQGSGYPFTFGGGTKVEIK
For the molecule B13, in assay [1], the equilibrium dissociation constant (Kd) was found to be 214 pM, the koff stood at 0.000105 s⁻¹ and the kon was determined as 490000 M⁻¹ s⁻¹.

B14: A4b4 Fab (Fab, V domains shown)
VH: QVTLRESGPALVKPTQTLTLTCTFSGFSLSTAGMSVGWIRQPPGKALEWLADIWWDDKKHYNPSLKDRLTISKDTSKNQVVLKVTNMDPADTATYYCARDMIFNFYFDVWGQGTTVTVSS
VL: DIQMTQSPSTLSASVGDRVTITCSASSRVGYMHWYQQKPGKAPKLLIYDTFFLDSGVPSRFSGSGSGTEFTLTISSLQPDDFATYYCFQGSGYPFTFGGGTKVEIK
Regarding B14, in assay [2], the “Microneutralization IC50, Fab” value was 0.414 µg/ml and 0.83 nM. Also, in assay [3], the “Mean IC50 (Control)” value came out at 0.0411 µg/mL and the “Mean IC50 (Curve)” value was determined as 0.0414 µg/mL. Further, in assay [1], the Kd was 86 pM, the koff was 5.2e-05 s⁻¹ and the kon came to 604000 M⁻¹ s⁻¹.

B15: A17b5 Fab (Fab, V domains shown)
VH: QVTLRESGPALVKPTQTLTLTCTFSGFSLSTAGMSVGWIRQPPGKALEWLADIWWDDKKHYNPSLKDRLTISKDTSKNQVVLKVTNMDPADTATYYCARDMIFNWYFDVWGQGTTVTVSS
VL: DIQMTQSPSTLSASVGDRVTITCSLSSRVGYMHWYQQKPGKAPKLLIYDTYYLPSGVPSRFSGSGSGTEFTLTISSLQPDDFATYYCFQGSGYPFTFGGGTKVEIK
Turning to B15, the “Microneutralization IC50, Fab” value in assay [2] is 0.406 µg/ml and 0.92 nM. Further, in assay [1], the Kd was determined as 124 pM, the koff was found to be 7.3e-05 s⁻¹ and the kon was 590000 M⁻¹ s⁻¹.

B16: A14a4 Fab (Fab, V domains shown)
VH: QVTLRESGPALVKPTQTLTLTCTFSGFSLSTAGMSVGWIRQPPGKALEWLADIWWDDKKSYNPSLKDRLTISKDTSKNQVVLKVTNMDPADTATYYCARDMITNWYFDVWGQGTTVTVSS
VL: DIQMTQSPSTLSASVGDRVTITCLLSSRVGYMHWYQQKPGKAPKLLIYDTYYQTSGVPSRFSGSGSGTEFTLTISSLQPDDFATYYCFQGSGYPFTFGGGTKVEIK
Take B16: in assay [2], the “Microneutralization IC50, Fab” value was > 0.4 µg/ml and > 8 nM. Moreover, in assay [1], the Kd was 723 pM, the koff was determined as 0.00024 s⁻¹ and the association rate constant (kon) amounted to 332000 M⁻¹ s⁻¹.

B17: A8c7 Fab (Fab, V domains shown)
VH: QVTLRESGPALVKPTQTLTLTCTFSGFSLSTAGMSVGWIRQPPGKALEWLADIWWDDKKSYNPSLKDRLTISKDTSKNQVVLKVTNMDPADTATYYCARDMIFNWYFDVWGQGTTVTVSS
VL: DIQMTQSPSTLSASVGDRVTITCSPSSRVGYMHWYQQKPGKAPKLLIYDTRYQSSGVPSRFSGSGSGTEFTLTISSLQPDDFATYYCFQGSGYPFTFGGGTKVEIK
Turning to B17, in assay [2], the “Microneutralization IC50, Fab” value is 0.177 µg/ml and 3.54 nM. In assay [3], the “Mean IC50 (Control)” value is 0.157 µg/mL and the “Mean IC50 (Curve)” value was found to be 0.177 µg/mL. Further, in assay [1], the Kd stood at 464 pM, the koff amounted to 0.0003 s⁻¹ and the kon amounted to 647000 M⁻¹ s⁻¹.
